Test results as given in PMC3276066.

Biological target: Encephalitozoon cuniculi TATA box binding protein, full length (Encephalitozoon cuniculi)

Substance: Encephalitozoon cuniculi Mot1 N-terminal domain (HEAT domain, residues 1–779) (domain or fragment)
- stoichiometry N: 1 Mot1:TBP
